{
  "source": "paper PMC3542827",
  "assay_in_all_cases": "EMSA",
  "key": {"[1]": {"system": "ParB L286A (Pseudomonas aeruginosa (PAO1161?))"}, "[2]": {"system": "ParB (wild type) (Pseudomonas aeruginosa (PAO1161?))", "conditions": "EMSA: 5.6 pmol dsDNA with 10, 20, 30, 50 pmol His6-ParB, 37 °C, 15 min; buffer as in Kusiak et al. 2011 (not given); 10% native PAGE in TBE"}, "[3]": {"system": "ParB L282A (Pseudomonas aeruginosa (PAO1161?))"}, "[4]": {"system": "ParB V285A (Pseudomonas aeruginosa (PAO1161?))"}},
  "data": [
    {"substance": "parS2/3 (oligos #17/#18)", "values": [
      {"measurement": "binding signal (fold affinity vs wild-type ParB)", "setting": "[1]", "result": 2},
      {"measurement": "binding signal (fold affinity (reference))", "setting": "[2]", "result": 1},
      {"measurement": "binding signal (fold affinity vs wild-type ParB)", "setting": "[3]", "result": 0.5},
      {"measurement": "binding signal (fold affinity vs wild-type ParB)", "setting": "[4]", "result": 0.5}
    ]}
  ]
}
